Experimental findings from patent US20210246209A1 (SHANGHAI JUNSHI BIOSCIENCES, published 2021) are described below.

Assay [1] concerns the target T1, human BTLA expressed on cells (human, UniProt Q7Z6A9 31-289).
T1 construct: whole, on cells
Briefly: FACS on 293F cells expressing hBTLA. The protocol: The humanized anti-BTLA antibodies were determined for their binding ability to hBTLA expressed on cells using cell-based flow cytometry (FACS). […] Then the cells were mixed with 50 μL of antibody diluent at different concentrations (initial concentration: 10 μg/mL, 3-fold titration), and incubated at room temperature for 30 minutes. After being washed with an FACS buffer twice, the cells were added with 100 μL of goat anti-human IgG-PE antibody, incubated for 30 minutes away from light, and assayed by FACS after two washes with an FACS buffer. The washed cells were resuspended in 4° C. buffer containing propidium iodide (PI) and 0.02% sodium azide that prevents receptor internalization and analyzed by flow cytometry. Viable cells were gated on the basis of PI positive cells being excluded from the FSC/SSC gate and their geometric mean fluorescence intensity was measured. The data were analyzed using a sigmoidal dose-response model within Prism™ software.
The humanized antibodies hu17, hu18, and hu19 can effectively bind to hBTLA on 293 cells.

For assay [2], the target named is T1, human BTLA expressed on cells. Nature of the assay: cell-based or functional assay.
The target in a further assay is T2, murine BTLA (murine, UniProt Q7TSA3 30-183, limits assumed).
T2 sequence (looked up): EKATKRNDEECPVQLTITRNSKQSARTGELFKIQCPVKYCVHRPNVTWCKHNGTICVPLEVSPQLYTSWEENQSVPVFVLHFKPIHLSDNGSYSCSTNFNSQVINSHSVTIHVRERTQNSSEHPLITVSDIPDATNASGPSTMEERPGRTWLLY
Nature of the assay: sheet shows OD:450nm against Log:ng/mL (ELISA-type readout); the text describes a Fortebio/biosensor assay with BTLA coupled to a chip.

Assay [3] addresses T3, hBTLA (human BTLA protein coated on plates or coupled to a chip) (human, UniProt Q7Z6A9 31-157, limits assumed).
T3 sequence (looked up): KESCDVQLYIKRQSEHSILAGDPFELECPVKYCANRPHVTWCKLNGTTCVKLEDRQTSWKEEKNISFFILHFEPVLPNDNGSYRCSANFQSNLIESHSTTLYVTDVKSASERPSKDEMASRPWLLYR
Briefly: ELISA, hBTLA coated at 0.5 µg/mL, anti-human IgG4-HRP detection. How it is done: The binding specificity of the humanized antibodies to hBTLA was determined by conventional ELISA method. A 96-well microplate was coated with 0.5 μg/mL hBTLA and incubated at 37° C. for 60 minutes. The solution in wells was then discarded, and the wells were washed 3 times with washing buffer, and blocked for 60 minutes with PBS containing 2% BSA. After being washed 3 times with washing buffer, the wells were added with gradiently-diluted antibodies, incubated at 37° C. for 60 minutes, and washed 3 times with washing buffer before adding a HRP-labeled mouse anti-human IgG4 secondary antibody diluted at 1:10000. The mixture was incubated at 37° C. for 1 hour, washed three times with washing buffer, and added with 100 μL of TMB substrate solution for color development at room temperature for 30 minutes, then the reaction was stopped with 100 μL of 2M hydrochloric acid solution and the absorbance was read at 450 nm.
The humanized antibodies hu17, hu18, and hu19 can specifically bind to hBTLA.
Background: In an ELISA, binding on a coated surface is turned into a signal by an enzyme label.

The target in assay [4] is T4, recombinant protein of human BTLA extracellular domain (hBTLA-ECD-FC) (human, UniProt Q7Z6A9 31-157, biotin-labeled in the FACS blocking assays (site not stated)).
T4 construct: extracellular domain; also called BTLA-Fc; biotin-labeled hBTLA; not shown: Fc of the self-constructed HX1-FC expression plasmid
T4 sequence (looked up): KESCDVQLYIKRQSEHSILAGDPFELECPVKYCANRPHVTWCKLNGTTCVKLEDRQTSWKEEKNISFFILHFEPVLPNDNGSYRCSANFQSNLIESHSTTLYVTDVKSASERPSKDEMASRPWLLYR
Nature of the assay: SPR, Biacore T200, BTLA-Fc amine-coupled to chip, antibody as analyte, 1:1 fit. The protocol: The assay was carried out using a Biacore T200 instrument (GE Healthcare). Series S CMS chip was loaded on the instrument and the system buffer used was HBS-EP+(10 mM HEPES, pH 7.4, 150 mM NaCl, 3 mM EDTA, 0.05% surfactant P20). The BTLA-Fc antigens were coupled in a chip detection channel: injecting a mixed solution of 400 mM EDC and 100 mM NHS at 10 μL/min for 420 s to activate the surface of the chip, diluting the BTLA-Fc antigens in a 10 mM sodium acetate/acetic acid (pH 5.5) buffer to a final concentration of 20 μg/mL and injecting at 10 μL/min for coupling, and injecting a 1M ethanolamine-hydrochloric acid solution (pH 8.5) at 10 μL/min for 420 s for blocking.
Antibodies were diluted in a 2-fold gradient with Biacore system buffer for a total of 6 concentration points. Concentration gradients were 24 nM, 12 nM, 6 nM, 3 nM, 1.5 nM and 0.75 nM, with 24 nM being a replicate. Data were analyzed using Biacore T200 Evaluation Software (version no. 3.0, GE Healthcare). Data were fitted using a model of 1:1 Binding. The kinetic constants of the binding of the antibodies to the antigens, namely, the association rate constant ka (1/Ms), dissociation rate constant kd (1/s) and the affinity constant kd (M), were obtained by fitting, and the results are shown in Table 8.

The target in assay [5] is T4, recombinant protein of human BTLA …. Briefly: FACS, blocking of biotin-labeled hBTLA binding to hHVEM-293F cells. How it is done:
Then the cells were mixed with previously biotin-labeled hBTLA (1 μg/mL) protein, incubated at 4° C. for 15 minutes, followed by mixing with 50 μL of humanized antibody diluent (initial concentration: 5 μg/mL, 3-fold titration) at different concentrations, and incubating at room temperature for 30 minutes. After being washed with an FACS buffer twice, the cells were added with 100 μL of goat anti-human IgG-PE antibody, incubated for 30 minutes away from light, and assayed by FACS after two washes with an FACS buffer. The washed cells were resuspended in 4° C. buffer containing propidium iodide (PI) and 0.02% sodium azide that prevents receptor internalization and analyzed by flow cytometry. Viable cells were gated on the basis of PI positive cells being excluded from the FSC/SSC gate and their geometric mean fluorescence intensity was measured. The data were analyzed using a sigmoidal dose-response model within Prism™ software.
The […] antibodies hu17, hu18, and hu19 can effectively block the binding of human BTLA to HVEM on the cell surface.

The target in assay [6] is recombinant human FcγRI (CD64) (human) (UniProt P12314). Nature of the assay: SPR, Biacore T200, Fc receptor captured by anti-His antibody, antibody injected. (In general: SPR reads the build-up and loss of mass on a sensor chip optically.)
Chain of recombinant human FcγRI (CD64) (human) (P12314 16-288 limits assumed): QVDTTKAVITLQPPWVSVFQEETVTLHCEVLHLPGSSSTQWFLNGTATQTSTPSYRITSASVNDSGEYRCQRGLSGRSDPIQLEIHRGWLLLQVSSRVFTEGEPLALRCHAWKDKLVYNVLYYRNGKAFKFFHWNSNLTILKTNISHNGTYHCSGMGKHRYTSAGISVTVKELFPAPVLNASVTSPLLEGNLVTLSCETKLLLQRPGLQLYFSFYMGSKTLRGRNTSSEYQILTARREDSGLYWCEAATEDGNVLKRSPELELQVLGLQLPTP
Assay [7] deals with recombinant human FcγRIIIA (CD16a) V176 (human) (UniProt P08637). Described as above.
Chain of recombinant human FcγRIIIA (CD16a) V176 (human) (P08637 17-208 F176V limits assumed): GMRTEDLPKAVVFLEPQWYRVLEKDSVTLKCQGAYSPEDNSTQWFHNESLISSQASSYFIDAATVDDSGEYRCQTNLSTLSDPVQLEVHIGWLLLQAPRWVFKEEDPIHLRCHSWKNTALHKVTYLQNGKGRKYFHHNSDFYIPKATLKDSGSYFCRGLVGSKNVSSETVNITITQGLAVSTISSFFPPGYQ
Assay [8] deals with recombinant human FcRn (human) (UniProt P55899). Described as above.
Chain of recombinant human FcRn (human) (P55899 24-297 limits assumed, form in doubt, chain 1 of 2): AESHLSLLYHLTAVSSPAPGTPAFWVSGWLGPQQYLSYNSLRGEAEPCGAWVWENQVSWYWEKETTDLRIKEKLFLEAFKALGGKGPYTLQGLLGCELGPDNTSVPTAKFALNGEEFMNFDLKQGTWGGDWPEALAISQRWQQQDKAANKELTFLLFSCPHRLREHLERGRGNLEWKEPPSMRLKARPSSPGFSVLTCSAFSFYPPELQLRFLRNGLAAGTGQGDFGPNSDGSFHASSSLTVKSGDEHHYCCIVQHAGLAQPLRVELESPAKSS
Chain of recombinant human FcRn (human) (chain, as listed by the source limits assumed, form in doubt, chain 2 of 2): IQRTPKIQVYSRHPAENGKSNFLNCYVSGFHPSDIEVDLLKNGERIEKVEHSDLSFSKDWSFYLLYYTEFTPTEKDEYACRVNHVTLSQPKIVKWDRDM
The target of assay [9] is recombinant human FcγRIIIA (CD16a) V176 (human) (UniProt P08637). Nature of the assay: SPR, Biacore T200, Fc receptor captured by anti-His antibody, antibody injected; IgG4 subtype (hu18), kinetics N/A.

B1: humanized antibody hu17 (antibody, V domains shown)
VH: QVQLVQSGAEVKKPGASVKLSCKASGYNFKHTYAHWVRQAPGQGLEWIGRIDPANGNTKYDPKFQGRATMTADTASNTAYLELSSLRSEDTAVYYCVADHYGSSLLDYWGQGTLVTVSS
VL: DIVMTQTPLSLSVTPGQPASISCKSSQSLLDSDGKTYLNWFQQRPGQSPRRLIYLVSKLDSGVPDRFSGSGSGTDFTLKISRVEAEDVGVYYCWQGTYFPYTFGQGTKLEIK
notes: also called hull [sic]; humanized antibody 17
The molecule B1 gave a concentration for a half-maximal effect (EC50) in [1] of 0.0967 µg/mL. In assay [2], the “EC50 (luciferase reporter, T cell activation)” value stood at 0.257 µg/mL. In the assay with murine BTLA, the binding result is “no binding (tested: 1000 ng/mL)”. Besides, the EC50 in assay [3] is 0.0063 µg/mL. For the same molecule, in [4], the Kd turned out to be 0.186 nM, the koff amounted to 0.000116 s⁻¹ and the kon is 624000 M⁻¹ s⁻¹. Also, the IC50 in assay [5] was determined as 0.143 µg/mL.

B2: humanized antibody hu18 (antibody, IgG4, V domains shown)
VH: QVQLVQSGAEVKKPGASVKLSCKASGYNFKHTYAHWVRQAPGQGLEWIGRIDPANGNTKYDPKFQGRATMTADTASNTAYLELSSLRSEDTAVYYCVADHYGSSLLDYWGQGTLVTVSS
VL: DVVMTQTPLSLSVTPGQPASISCKSSQSLLDSDGKTYLNWFQQRPGQSPRRLIYLVSKLDSGVPDRFSGSGSGTDFTLKISRVEAEDVGVYYCWQGTYFPYTFGQGTKLEIK
notes: also called JS004; recombinant human anti-BTLA antibody
On to B2, for which the equilibrium dissociation constant (Kd) in assay [6] was 18.4 nM; in [8], 138 nM; in assay [9], 60200 nM; in assay [4], 0.136 nM. Moreover, the dissociation rate constant (koff) stood at 0.00387 s⁻¹ in assay [6], 0.0708 s⁻¹ in assay [8] and 8.67e-05 s⁻¹ in assay [4]. The values for the association rate constant (kon) in [6], in [8] and in [4] were 210000 M⁻¹ s⁻¹, 512000 M⁻¹ s⁻¹ and 639000 M⁻¹ s⁻¹, respectively. Also, in assay [7], the fold weaker than the control antibody of the IgG1 subtype (hu18-IgG1) was 400 fold. In addition, the concentration for a half-maximal effect (EC50) in assay [1] came out at 0.0893 µg/mL; in assay [3] it was 0.0054 µg/mL. Besides, the “EC50 (luciferase reporter, T cell activation)” value in [2] was 0.277 µg/mL. Moreover, the IC50 in [5] was determined as 0.172 µg/mL.

By EC50 is commonly meant the concentration that produces a half-maximal response. Broadly, the Kd is the concentration at which binding is half-saturated. Broadly, the koff is the rate constant with which the complex falls apart. Usually kon stands for the second-order rate constant of association. A word on the IC50: it is the concentration at which inhibition is half-maximal.
